Test results as given in article PMC8056755 (The Journal of Cell Biology, 2021).
No end group written: not given here.

T1: purified His-tagged septin 7 (full length) (UniProt Q16181 1-437)
T1 sequence: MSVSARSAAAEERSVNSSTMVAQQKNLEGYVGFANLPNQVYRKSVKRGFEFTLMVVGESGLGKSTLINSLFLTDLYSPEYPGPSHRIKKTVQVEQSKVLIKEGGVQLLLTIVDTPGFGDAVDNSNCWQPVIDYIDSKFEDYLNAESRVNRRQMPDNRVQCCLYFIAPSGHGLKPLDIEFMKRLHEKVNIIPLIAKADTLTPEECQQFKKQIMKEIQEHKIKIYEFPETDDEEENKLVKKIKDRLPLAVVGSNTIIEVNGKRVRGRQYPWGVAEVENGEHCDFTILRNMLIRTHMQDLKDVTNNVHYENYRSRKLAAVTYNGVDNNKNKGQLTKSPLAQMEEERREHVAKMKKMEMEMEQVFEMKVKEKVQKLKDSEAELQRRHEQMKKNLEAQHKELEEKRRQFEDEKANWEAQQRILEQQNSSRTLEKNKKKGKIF

T2: SEPT7-ΔCC (septin 7 residues 1-331, lacking the coiled coil domain), His-tagged (UniProt Q16181 1-331)
T2 sequence: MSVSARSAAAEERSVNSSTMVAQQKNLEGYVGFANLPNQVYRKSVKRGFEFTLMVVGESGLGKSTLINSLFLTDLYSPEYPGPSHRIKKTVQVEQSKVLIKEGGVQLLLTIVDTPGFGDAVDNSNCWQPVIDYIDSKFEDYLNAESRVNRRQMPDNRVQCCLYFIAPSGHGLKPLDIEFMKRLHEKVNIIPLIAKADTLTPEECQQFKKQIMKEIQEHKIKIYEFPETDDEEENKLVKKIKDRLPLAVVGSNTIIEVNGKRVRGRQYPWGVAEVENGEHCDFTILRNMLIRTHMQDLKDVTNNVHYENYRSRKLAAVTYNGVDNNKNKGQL

B1: FIT2-Strep-His8-GFP fusion protein, reconstituted into proteoliposomes (natural protein)
chain: MEHLERCEWLLRGTLVRAAVRRYLPWALVASMLAGSLLKELSPLPESYLSNKRNVLNVYFVKVAWAWTFCLLLPFIALTNYHLTGKAGLVLRRLSTLLVGTAIWYICTSIFSNIEHYTGSCYQSPALEGVRKEHQSKQQCHQEGGFWHGFDISGHSFLLTFCALMIVEEMSVLHEVKTDRSHCLHTAITTLVVALGILTFIWVLMFLCTAVYFHNLSQKVFGTLFGLLSWYGTYGFWYPKAFSPGLPPQSCSLNLKQDSYKK

Legend:
[1] = molecular target: T1, purified His-tagged septin 7 (full …); assay: proteoliposome coflotation
[2] = molecular target: T1, purified His-tagged septin 7 (full …); assay: BLI
[3] = molecular target: T2, SEPT7-ΔCC (septin 7 residues 1-331, …); assay: BLI

Binder | binding result [1] | binding result [2] | binding result [3]
B1 | binds |  | 
MEHLERCEWLLRGTLVRAAVRRY (also: biotinylated, site not given here) [biotinylated FIT2 N-terminal loop peptide (NTL, residues 1-23)] |  | binds | binds
